As a reminder, the stoichiometry N is a count of units in the complex or per binding partner.

Consider two molecules from paper PMC10855146, “Secondary Modification of S100B Influences Anti Amyloid-β Aggregation Activity and Alzheimer’s Disease Pathology” (International Journal of Molecular Sciences, 2024).

Data set [1] concerns the target Human recombinant amyloid beta 42 (human, UniProt P05067 672-713). The experiment in a line: cell-based or functional assay.
Data set [2] concerns the molecule itself. The experiment in a line: SEC; analytical size-exclusion chromatography, Superdex 75 Tricorn, room temperature, 1 mL/min, 50 mM TrisHCl pH 7.4, imidazole as internal standard. Background: Size exclusion chromatography separates by hydrodynamic size, large species first.

Chain of Human recombinant amyloid beta 42 (P05067 672-713): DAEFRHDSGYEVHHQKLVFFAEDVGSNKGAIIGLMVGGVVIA

B1: Human S100B (natural protein, UniProt P04271 1-92, looked up)
chain: MSELEKAMVALIDVFHQYSGREGDKHKLKKSELKELINNELSHFLEEIKEQEVVDKVMETLDNDGDGECDFQEFMAFVAMVTTACHEFFEHE
notes: S100B, human, recombinant; also called non-oxidized S100B; unmodified S100B; source: apo form eluted on Superdex S75
Regarding B1, in data set [1], the “half-time of ThT-monitored aggregation of monomeric Aβ42 (5 μM) with a 10-fold excess of S100B (0.9 h for Aβ42 alone)” value is 4.5 h. The “stoichiometry N” value in data set [2] turned out to be 2.

B2: Oxidized S100B (HClO-treated recombinant human S100B) (natural protein, UniProt P04271 1-92, looked up)
chain: MSELEKAMVALIDVFHQYSGREGDKHKLKKSELKELINNELSHFLEEIKEQEVVDKVMETLDNDGDGECDFQEFMAFVAMVTTACHEFFEHE
modifications: up to three methionine sulfoxide residues per S100Box monomer (positions not given); no Cys oxidation
notes: S100B, human, recombinant, oxidized with HClO; also called S100Box; S100ox
With B2, in data set [1], the “blocking of Aβ42 fibril elongation in seeded ThT aggregation assays (5 μM Aβ42, 4-fold excess of S100Box, 0.04 µM pre-formed fibrils), against S100B” value was ~3 fold against S100B and the “half-time of ThT-monitored aggregation of monomeric Aβ42 (5 μM) with a 10-fold excess of S100Box (0.9 h for Aβ42 alone)” value worked out at 8.5 h. The “stoichiometry N” value in data set [2] was found to be 2.
